What was measured:
Experiment in all cases: yeast two-hybrid
[1] = biological target: T1, Focal adhesion kinase 2 (FAK2) amino acids 673-866 (yeast, UniProt P04386 1-147; Q14289 673-866)
T1 construct: also called PYK2; CAKβ
From the text: (§1) The principles and methods of the yeast two-hybrid systems have been described in detail (Bartel and Fields, 1997). The following is thus a description of the particular procedure that was used, which was applied to all proteins.
(§2) The cDNA encoding the bait protein was generated by PCR from brain cDNA. Gene-specific primers were synthesized with appropriate tails added at their 5′ ends to allow recombination into the vector pGBTQ. The tail for the forward primer was 5′-[…]-3′ (SEQ ID NO: 1) and the tail for the reverse primer was 5′-[…]-3′ (SEQ ID NO:2). […] The new construct was selected directly in the yeast J693 for its ability to drive tryptophane synthesis (genotype of this strain: Mat α, ade2, his3, leu2, trp1, URA3::GAL1-lacZ LYS2::GAL1-HIS3 gal4del gal80del cyhR2). In these yeast cells, the bait is produced as a C-terminal fusion protein with the DNA binding domain of the transcription factor Gal4 (amino acids 1 to 147). A total human brain (person) cDNA library cloned into the yeast expression vector pACT2 was purchased from Clontech (human brain […] cDNA, cat. # HL4004AH), transformed into the yeast strain J692 (genotype of this strain: Mat α, ade2, his3, leu2, trp1, URA3::GAL1-lacZ LYS2::GAL1-HIS3 gal4del gal80del cyhR2), and selected for the ability to drive leucine synthesis. In these yeast cells, each cDNA is expressed as a fusion protein with the transcription activation domain of the transcription factor Gal4 (amino acids 768 to 881) and a 9 amino acid hemagglutinin epitope tag. J693 cells […] expressing the bait were then mated with J692 cells […] expressing proteins from the brain library. The resulting diploid yeast cells expressing proteins interacting with the bait protein were selected for the ability to synthesize tryptophane, leucine, histidine, and β-galactosidase.

[2] = biological target: T2, mixed lineage kinase 2 (MLK2) amino acids 305-549 (yeast; human, UniProt P04386 768-881; Q02779 305-549)
T2 construct: also called MST; MAP3K10
From the text: as §1, §2

[3] = biological target: T3, neuroendocrine protein Discs Large 3 (NE-dlg, DLG3) amino acids 94-506 (yeast; human, UniProt P04386 768-881; Q92796 94-506)
T3 construct: also called SAP102
T3 sequence (looked up): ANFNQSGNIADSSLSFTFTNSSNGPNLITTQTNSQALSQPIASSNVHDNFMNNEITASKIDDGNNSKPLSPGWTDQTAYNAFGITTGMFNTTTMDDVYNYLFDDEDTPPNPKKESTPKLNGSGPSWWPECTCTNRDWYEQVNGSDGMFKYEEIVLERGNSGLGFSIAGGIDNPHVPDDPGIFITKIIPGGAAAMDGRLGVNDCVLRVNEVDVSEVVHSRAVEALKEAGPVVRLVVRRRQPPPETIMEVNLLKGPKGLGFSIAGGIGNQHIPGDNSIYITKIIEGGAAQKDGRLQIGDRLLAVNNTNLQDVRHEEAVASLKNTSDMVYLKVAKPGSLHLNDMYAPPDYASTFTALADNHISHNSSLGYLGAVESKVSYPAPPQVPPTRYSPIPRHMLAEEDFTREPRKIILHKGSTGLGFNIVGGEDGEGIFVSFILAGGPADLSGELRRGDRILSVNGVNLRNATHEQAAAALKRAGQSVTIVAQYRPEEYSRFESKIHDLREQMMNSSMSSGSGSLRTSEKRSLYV
From the text: as §1, §2

[4] = biological target: T4, transcription factor HTF4A amino acids 296-494 (yeast; human, UniProt P04386 768-881; Q99081 296-494)
T4 sequence (looked up): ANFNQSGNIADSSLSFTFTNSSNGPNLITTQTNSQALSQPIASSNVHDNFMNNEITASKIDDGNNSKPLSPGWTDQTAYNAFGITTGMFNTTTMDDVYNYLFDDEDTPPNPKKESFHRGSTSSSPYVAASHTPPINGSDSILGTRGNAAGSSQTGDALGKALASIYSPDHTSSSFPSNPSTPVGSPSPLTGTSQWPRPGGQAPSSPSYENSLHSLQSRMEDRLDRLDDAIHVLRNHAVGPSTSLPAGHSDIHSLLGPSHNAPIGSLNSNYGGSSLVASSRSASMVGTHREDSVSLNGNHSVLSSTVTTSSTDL
From the text: as §1, §2

[5] = biological target: phosphodiesterase 9A (PDE-9A) amino acids 269-593 (yeast; human, UniProt P04386 768-881; O76083 269-593)
From the text: as §1, §2

[6] = biological target: glyceraldehyde-3-phosphate dehydrogenase (GAPDH) amino acids 2-190 (yeast; human, UniProt P04386 768-881; P04406 2-190)
From the text: as §1, §2

B1: SUR1, type-1 sulfonylurea receptor, amino acids 121-270 (other, yeast;human, UniProt P04386 768-881, looked up, not shown: small tags and cut ends)
chain: ANFNQSGNIADSSLSFTFTNSSNGPNLITTQTNSQALSQPIASSNVHDNFMNNEITASKIDDGNNSKPLSPGWTDQTAYNAFGITTGMFNTTTMDDVYNYLFDDEDTPPNPKKEVVYYHNIETSNFPKLLIALLVYWTLAFITKTIKFVKFLDHAIGFSQLRFCLTGLLVILYGMLLLVEVNVIRVRRYIFFKTPREVKPPEDLQDLGVRFLQPFVNLLSKGTYWWMNAFIKTAHKKPIDLRAIGKLPIAMRALTNYQRLCEAF
B1: binds [1].

B2: CIB amino acids 1-191 (other, UniProt P04386 1-147, looked up)
chain: MKLLSSIEQACDICRLKKLKCSKEKPKCAKCLKNNWECRYSPKTKRSPLTRAHLTEVESRLERLEQLFLLIFPREDLDMILKMDSLQDIKALLTGLFVQDNVNKDAVTDRLASVETDMPLTLRQHRISATSSSEESSNKGQRQLTVSMGGSGSRLSKELLAEYQDLTFLTKQEILLAHRRFCELLPQEQRSVESSLRAQVPFEQILSLPELKANPFKERICRVFSTSPAKDSLSFEDFLDLLSVFSDTATPDIKSHYAFRIFDFDDDGTLNREDLSRLVNCLTGEGEDTRLSASEMKQLIDNILEESDIDRDGTINLSEFQHVISRSPDFASSFKIVL
B2: binds [2].

B3: bcr (break point cluster) amino acids 1206-1271, C-terminal bait (other, UniProt P04386 1-147, looked up)
chain: MKLLSSIEQACDICRLKKLKCSKEKPKCAKCLKNNWECRYSPKTKRSPLTRAHLTEVESRLERLEQLFLLIFPREDLDMILKMDSLQDIKALLTGLFVQDNVNKDAVTDRLASVETDMPLTLRQHRISATSSSEESSNKGQRQLTVSVFGPTLLRPSEKESKLPANPSQPITMTDSWSLEVMSQVQVLLYFLQLEAIPAPDSKRQSILFSTEV
B3: binds [3]; binds [4].

B4: Mint2 amino acids 1-210 (other, UniProt P04386 1-147, looked up)
chain: MKLLSSIEQACDICRLKKLKCSKEKPKCAKCLKNNWECRYSPKTKRSPLTRAHLTEVESRLERLEQLFLLIFPREDLDMILKMDSLQDIKALLTGLFVQDNVNKDAVTDRLASVETDMPLTLRQHRISATSSSEESSNKGQRQLTVSMAHRKLESVGSGMLDHRVRPGPVPHSQEPESEDMELPLEGYVPEGLELAALRPESPAPEEQECHNHSPDGDSSSDYVNNTSEEEDYDEGLPEEEEGITYYIRYCPEDDSYLEGMDCNGEEYLAHSAHPVDTDECQEAVEEWTDSAGPHPHGHEAEGSQDYPDGQLPIPEDEPSVLEAHDQEEDGHYCASKEGYQDYYPEEANGNTGASPY
notes: also called X11 beta
B4: binds [5].

B5: Presenilin 2 (PS2) amino acids 1-97 (other, UniProt P04386 1-147, looked up)
chain: MKLLSSIEQACDICRLKKLKCSKEKPKCAKCLKNNWECRYSPKTKRSPLTRAHLTEVESRLERLEQLFLLIFPREDLDMILKMDSLQDIKALLTGLFVQDNVNKDAVTDRLASVETDMPLTLRQHRISATSSSEESSNKGQRQLTVSMLTFMASDSEEEVCDERTSLMSAESPTPRSCQEGRQGPEDGENTAQWRSQENEEDGEEDPDRYVCSGVPGRPPGLEEELTLKYGAKHVIMLFVPVTL
notes: also called Presinilin 2
B5: binds [6].

— US20020115606A1 (MYRIAD GENETICS, published 2002)
